Reference: patent US20240285788A1, “CONJUGATE OF ANTIBODY AND FUNCTIONAL SUBSTANCE OR SALT THEREOF, AND ANTIBODY DERIVATIVE AND COMPOUND USED IN PRODUCTION OF THE SAME OR SALTS THEREOF” (Ajinomoto Co., Inc., priority 2021, published 2024)

Assays:
[1] = Evaluation of degree of hydrophobicity by hydrophobic column chromatography (HIC-HPLC); type: physicochemical; details: for Retention time: ADC mimics from thiol group-introduced trastuzumab, DAR 2
Method: (§1) According to a previous report (Anal. Chem., 2019, 91, 20, 12724-12732, which is incorporated herein by reference in tis entirety), HIC-HPLC analysis was performed. Measurement was performed using the following conditions. Degrees of hydrophobicity of an ADC can be evaluated by retention time of the ADC in HIC chromatogram.
Measurement system: Chromaster (registered trademark) (manufactured by Hitachi, Ltd.)
Column: Tosoh Biobuthyl NPR 2.5 μm 4.6×35 mm column manufactured by Tosoh Bio-Sciences Inc.
Gradient: linear gradient of eluent A/B
Eluent B: 25 mM Na2HPO4/NaH2PO4 (pH 6.0, 25 v/v % isopropanol added)
For DAR analysis of the ADC mimics synthesized in Example 7 and Comparative Example 2, HIC-HPLC analysis was performed according to a previous report (Anal. Chem., 2019, 91, 20, 12724-12732, which is incorporated herein by reference in its entirety). Measurement was performed using the following conditions.
HIC-HPLC analysis was performed using the condition of Example 8. Measurement was performed using the following conditions. A degree of hydrophobicity of ADC mimic can be evaluated by retention time of ADC in HIC chromatogram.
HIC-HPLC analysis was performed using the condition of Example 8.
Subsequently, hydrophobicity of an ADC was evaluated using HIC-HPLC. Measurement was performed according to Example 9. A degree of hydrophobicity of an ADC can be evaluated by retention time of ADC in HIC chromatogram.
as §1, with “its” for “tis”

[2] = Evaluation of aggregation ratio by size exclusion chromatography (SEC-HPLC); type: physicochemical
Method: SEC-HPLC analysis was performed according to a previous report (Chemistry Select, 2020, 5, 8435-8439). Measurement was performed using the following conditions.
Measurement system: 1260 HPLC system (manufactured by Agilent)
Column: AdvanceBio SEC 300 Å, 2.7 μm, 4.6 mm×150 mm, manufactured by Agilent Technologies
Eluent: 100 mM sodium dihydrogen phosphate/sodium hydrogen phosphate, aqueous solution of 250 mM sodium chloride (pH 6.8), 10% v/v isopropanol
SEC-HPLC analysis was performed according to Example 10.

Row | Compound | Retention time ([1]; Table 2, HIC-HPLC) | Retention time ([1]; Table 20) | degree of hydrophilicity judged from retention time in HIC chromatogram (in words) [1] | tendency of aggregation ratio by SEC-HPLC (in words) [2]
1 | CCCCCNC(=O)CCSC1CC(=O)N(CCCCCNC(=O)C(OC(=O)N(C)CC(=O)NCc2ccc3ccc4cccc5ccc2c3c45)c2ccc(NC(=O)[C@H](CCCNC(N)=O)NC(=O)[C@@H](NC(=O)OCc3ccccc3)C(C)C)cc2)C1=O (stereo partly drawn) [ADC mimic 5] | 13.6 min | 13.6 min |  | 
2 | CSC1CC(=O)N(CCCCCNC(=O)C(OC(=O)N(C)CC(=O)NCc2ccc3ccc4cccc5ccc2c3c45)c2ccc(NC(=O)[C@H](CCCNC(N)=O)NC(=O)[C@@H](NC(=O)[C@H](CCC(=O)O)NC(C)=O)C(C)C)cc2)C1=O (stereo partly drawn) [ADC mimic 12] |  |  | more hydrophilic | 
3 | CSC1CC(=O)N(CCCCCNC(=O)C(OC(=O)N(C)CC(=O)NCc2ccc3ccc4cccc5ccc2c3c45)c2ccc(NC(=O)[C@H](CCCNC(N)=O)NC(=O)[C@@H](NC(=O)[C@H](CCC(=O)O)NC(=O)[C@H](CCC(=O)O)NC(C)=O)C(C)C)cc2)C1=O (stereo partly drawn) [ADC mimic 13] |  |  | more hydrophilic | low aggregation ratios
4 | CSC1CC(=O)N(CCCCCNC(=O)C(OC(=O)N(C)CC(=O)NCc2ccc3ccc4cccc5ccc2c3c45)c2ccc(NC(=O)[C@H](C)NC(=O)[C@@H](NC(=O)[C@H](CCC(=O)O)NC(C)=O)C(C)C)cc2)C1=O (stereo partly drawn) [ADC mimic 14] |  |  | more hydrophilic | 
